# Reference: PMC5962637, “Simultaneous cell disruption and semi-quantitative activity assays for high-throughput screening of thermostable L-asparaginases” (Scientific Reports, 2018)
# B1: P. yayanosii CH1 L-asparaginase (pyasnase) (Pyrococcus yayanosii CH1) (protein)
# chain: MRLLILGMGGTIASVPSEEGYESSLSVEEILRLAGLELKWEVEARDLLNIDSTLIQPEDWVLLAETVFEAFEEFDGVVITHGTDTLAYTASMLSFMVRNPPVPIVLTGAMRPITEPGSDAPRNLWTALRFAIEGVPGVYVAFMDKVMLGVRVSKVRAVGLNAFQSINYPDIAYVKGNRIHWNAKPPKLEGEPVLDTRHEPRVLVLRLVPGMEGDVLEAALELGYRGIVLEGYGVGGIPYRGRDLLDVVRRVATEIPVVMTTQTLYDGVDLTKYKVGRKALEVGVIPAGDMTKEATITKLMWILGHTRDVGEVRRLMLTNMVGEIGKSA
# notes: C-terminal His-tag (in primer R1); codon-optimised synthetic gene, pMA5, Bacillus subtilis 168; homodimer (homology model)
# Substrate: NC(=O)C[C@H](N)C(=O)O
# Experiment: ammonia release with Nessler's reagent, A450; Michaelis-Menten plot
# Format: biochemical, Pyrococcus yayanosii
# Settings: 50 mM Tris-HCl pH 8.0, 95 °C, substrate range 0.05-2.0 mM
protein,measurement,value
B1,Km,6.5 mM
